The record followed here is a protein production outcome set (Wang et al. 2014).

The data set is described as follows: label from the status in PepcDB records.

Take “MNTRHFSQLPKPYLAYPKVIQGLVFKKPKGSKILPQVEYVVDSFQIDQQHLRDYNEVCGFQNDGFIPAIYLAVLSQSLQMHMMTTEAFPFPVLGLVHIRNQIKQIRKIAVNETLTLSCQFGELKPHDKGLQFDFITTAKVGNDIVMEGITTYLSRQKTEQVSAEKPKENKTPDYQVQQVWDVAENTGRRYAKTSGDYNLIHIHAITAKAFGFKQAIAHGMWSKAKALANIVLPDAYEADVWFKLPMYLPSKVEFLTAEQSKETDFLIRNAKSQKPHVSGVVKAL”: the protein production entry was “failed”.
As to “MNTSFIKTLMTTNAGFAALALRIPTAIIFIAHGAQKLFGSFGGYGLEGTGQWMASIGLEPGYQLALLAGSAEFFGGIALLIGLLVRPAALMLSVTMVVAIFSVHFANGLFMTNNGYEFALALLAVSFSLMFSGAGKLSLDNLLAEKLA”, the protein production entry is “failed”.
As for “MNTSNRRMGLFYVITGATCWGIGGTVAKKLFQEYQIDVNWLVTTRLLTAGMLLLMLQLFRKDRSQVIEVWKHKASAGQLLIFGLLGMLAVQYTYMASIQHGNAAVATLLQYLSPVIVIIYTLLRKQTVLTKQDIITVVLALVGCFFLLTNGSMSQLSVPAAAVVWGVLSGFAAAFYTLYAVGLLNKFDSLVVVGWAMIIGGFALGFIHPPWQLDFQRLTAEAYAYILFVILFGTMIAFWFFIKSLESLSPKETSLLGSLEPLSAVVTTVVWLKAPFGSFQWIGAICIIGITLILALHKEPSMESEKSILKIRNHANRDI”, the entry is “failed”; as for “MNTYAQESKLRLKTKIGADGRCVIEDNFFTPPFKLMAPFYPKDDLAEIMLLAVSPGMMRGDAQDVQLNIGPNCKLRITSQSFEKIHNTEDGFASRDMHIVVGENAFLDFAPFPLIPFENAHFKGNTTISLRSSSQLLYSEIIVAGRVARNELFKFNRLHTKISILQDEKPIYYDNTILDPKTTDLNNMCMFDGYTHYLNLVLVNCPIELSGVRECIEESEGVDGAVSETASSHLCVKALAKGSEPLLHLREKIARLVTQTTTQKV”, “failed”.
For “MNVLFTSVPQEDVPFYQEALKDLSLKIYTTDVSKVPENELKKAELISVFVYDKLTEELLSKMPRLKLIHTRSVGFDHIDLDYCKKKGILVTHIPAYSPESVAEHTFAMILTLVKRLKRIEDRVKKLNFSQDSEILARELNRLTLGVIGTGRIGSRVAMYGLAFGMKVLCYDVVKREDLKEKGCVYTSLDELLKESDVISLHVPYTKETHHMINEERISLMKDGVYLINTARGKVVDTDALYRAYQRGKFSGLGLDVFEDEEILILKKYTEGKATDKNLKILELACKDNVIITPHIAYYTDKSLERIREETVKVVKAFVKGDLEQIKGNFVVGPS”, the protein production entry is on record as “not failed”.
As to “MNVLRPALLTLACMLASPVMSDDLPSLGDASSSIVSPEQEFQLGRAWLSMLRNQVDAISDPQLKDFVESSVYRLAETSDLQDHRLAFILIRDAQINAFAAPGGVIGVNGGLLLNAQTEGEYAAVLAHELGHLIQRHFARGIEAQQRMQLPVMAAMLAGIVAAAAGAGDAGIAAIAGTQAAAIQNQLRFSRQNEQEADRVGVTNMVRAGYDPRSMPNMFERLARQYRYDGKPPEFLLTHPVTESRIADTRNRAEQYPQGGKEDSLRYQQMRARTQLLFEETPGMAGKRFRAMLNDNPKLDAARYGLAISQTRIGQLNDARDNLRQLLAKAPNDVAYNLAQVELDITANRLPDADQRLKKMLAQFPSSYPLKQVRADLMLKMGKPQESEKILDDLSKARPLDPDVWNRLAEVRSLTNNAIGVHQARAEYLSLTGDYQAAIEQLDFAKRRAGGNFQLAARLDARQQEIRQQEKMVKEMFR”, the protein production entry was “failed”.
On to “MNVMQENQIKLIEHIKQAVVQAVGLEETEVPEILLEVPKDKKHGDYSTNIAMQLARVAKKAPRQIAESIVPELKKDTKLIKEVEIAGPGFINFYLDNAYLTDLVPVILTEDKKYG”, for which the protein production entry is “not failed”.
With “MNVSHISAVSYYFARYIQEVLEVPVGIVVSTWGGSKIEAWMSRESIKPFSSIDLSILDNDAEVKNPTATPCVLYNGKIAPLTNFAVRGFLWYQGESNRDNADLYQSLMPAFVADLRAKWGRGELPFYFVQIAPFDYEGADGTSAARLREVQLQNMKDIPNSGMVTTMDVGHPVFIHPVDKETVGNRLAYWALAQTYGMKGFGYAPPVYKSMEIQENKIYINFYNAQRGLSPMWTSLKGFEIAGEDKVFYPAFAEIETTTARLAVSSDKVSHPVAVRYAYKNYVEASIFSIHGIPAAPFRTDNWLEHHHHHH”, the protein production entry is “failed”.
For “MNVTPWEVEGVIDYSKLIEEFGMQPFSEVLPEIDNPHILMRRGAIFGHRDYWRIIEAMQKKEPWAVMSGFMPSGLPHFGHKMTMDEIVWHQSAGGKAFVAIADMEAHSVRGLSWEKTRELGMLYIKSIIALGLREDAVIYFQSKSSHVKDLAFELSAEVNFSELRAIYGFNSDTSLAKMFVTAIQAADILHPQLSDFGGPKPVVVPVGADQDPHMRLTRDLAARISIFSFEPVEGGVRVRSRKGAEYLSSLRDLEFDKKIYEEHMDIFGEAEEIERAVRKIEVEIGGFAFIPPSSTYHRFTTGLTGGKMSSSKPESYISLLDPPEEGAKKVMKAFTGGRATAEEQRRLGGEPDRCVVFELYSFHLIDSDEELNQIEAECREGRLLCGKCKKMAAELVKSFLKEHQEKMEAVDLSNYTIIG”, the protein production entry is reported as “failed”.
As for “MNVWLLGRGELRRRHDDVLQLERAFLTDRTGLHFVNARSSEDLLALAESRRAEQQWPVLDAEWISPVGTDTCDDLVWQNLESTLDGRPDTFYSTAGFEAGNTLSGTGELAPGEAFLAYRFWRPVRVYAVQLRAFQADFHPGRPVYPFQVARVGVGCSLQAGMSLSYGADASAPGTSCNYRCFCTTEQQTLVFDDPMVGVYLVICLKGFPQQQLTDRLHYAAVSGIRVFGEPISSPALENELSCLISRGFILDGRDAARWLDLRSAQEHAAPMHIPEDEVI”, the entry is “not failed”; as for “MNVYDLIAEHYSGLFPLETEKLEFIQHLCPLPGRLCDAGCATGELVMGLYQKGYDICGLDLNEKMIGIAEKKASCIRKTGELMFYHADIADIMQFGKFKGVLCFGNTLPHLRDEEALRRFFGSVYRSLEEHGIFIVEVLNYDRILDDKKMDFKDKETKDFIFKRNYDFLPGGNIRFTIEFTDKQRSTVGSDFTVLHPLKRQMLLALFKQTGFKSVSAYSDYSFTESRAEDYAVVYTANK”, “failed”.
For “MNWKDKVKTTFYSCDRFVRFVIQHFIQDDCTYIASALAFTSLLAVVPLMSVGLAIFSSFPVFQGLAEPVQNFIFDNFVPATGKIVQSYLQQFTSQVSKLSIWGIVFLIFTALLVMFTIERAMNKIWRVSSSRHGVSAFLLYWAIISLAPVLLGLSLAASSYLFSMPILADHRAPYTILHYSPFFLSLIGFTFLYVVVPNCPVKIRHAFWGGLVAAILFESAKHAFAYYLIRYNTYALLYGAFATVPIFFIWVYWVWIITLLGAEISYAFSVHHQRRGGKSLDGFSHALLWLHQLWLAQQHGKGLSFNDLVDASKQPFAVDVDEMINALIYHELIHATADGHYMLSRDLSHVTLYDLTQLLPYRLPTHLELQYSKASLAEQWRAAFKRHNEELKKSLDINLEELFKKTGTVIK”, the protein production result was “failed”.
